Experimental data taken from patent publication US20260201008A1, “SECRETIN-DERIVED GLP1R SELECTIVE AGONISTS” (GUBRA A/S, priority 2023, published 2026).
Square brackets hold non-standard residues; d marks the D form. Ends that are not written are not given here. Aib = CC(C)(N)C(=O)O

What was measured:
[1] = target: human GLP-1 receptor (hGLP1R) (human, UniProt P43220 24-463); experiment: cell-based or functional assay
[2] = target: human secretin receptor (hSCTR) (human, UniProt P47872 23-440); experiment: cell-based or functional assay
Sequence of human secretin receptor (hSCTR) (P47872 23-440): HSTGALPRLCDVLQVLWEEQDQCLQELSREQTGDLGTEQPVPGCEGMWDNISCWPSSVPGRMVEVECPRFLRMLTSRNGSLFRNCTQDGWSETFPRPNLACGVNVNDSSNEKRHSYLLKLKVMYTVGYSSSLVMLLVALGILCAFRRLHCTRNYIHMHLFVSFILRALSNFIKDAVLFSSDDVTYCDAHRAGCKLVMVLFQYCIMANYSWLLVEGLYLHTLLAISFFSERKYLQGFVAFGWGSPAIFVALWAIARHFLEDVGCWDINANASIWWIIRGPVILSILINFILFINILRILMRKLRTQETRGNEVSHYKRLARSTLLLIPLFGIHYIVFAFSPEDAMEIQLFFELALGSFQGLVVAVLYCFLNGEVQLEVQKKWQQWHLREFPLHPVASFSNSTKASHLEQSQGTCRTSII

pEC50 hGLPR1 [1] | pEC50 hSCTR [2] | Binder
11.2 -log M | 6.9 -log M | H[Aib]EGTFTSDVSYLKEEA[Aib]IQRFLEHLV-NH2 (not fully specified (residue 14)) [SEQ ID NO: 139]
11.1 -log M | 7.1 -log M | H[Aib]EGTFTSDVSYLKEEAALQRFLEHLV-NH2 (not fully specified (residue 14)) [SEQ ID NO: 137]
8.6 -log M | 5.3 -log M | H[Aib]EGTFTSDPSRLLEGAALQRFIQWLV-NH2 (N-terminus assumed; SMILES CC[C@H](C)[C@H](NC(=O)[C@H](Cc1ccccc1)NC(=O)[C@H](CCCNC(=N)N)NC(=O)[C@H](CCC(N)=O)NC(=O)[C@H](CC(C)C)NC(=O)[C@H](C)NC(=O)[C@H](C)NC(=O)CNC(=O)[C@H](CCC(=O)O)NC(=O)[C@H](CC(C)C)NC(=O)[C@H](CC(C)C)NC(=O)[C@H](CCCNC(=N)N)NC(=O)[C@H](CO)NC(=O)[C@@H]1CCCN1C(=O)[C@H](CC(=O)O)NC(=O)[C@H](CO)NC(=O)[C@@H](NC(=O)[C@H](Cc1ccccc1)NC(=O)[C@@H](NC(=O)CNC(=O)[C@H](CCC(=O)O)NC(=O)C(C)(C)NC(=O)[C@@H](N)Cc1c[nH]cn1)[C@@H](C)O)[C@@H](C)O)C(=O)N[C@@H](CCC(N)=O)C(=O)N[C@@H](Cc1c[nH]c2ccccc12)C(=O)N[C@@H](CC(C)C)C(=O)N[C@H](C(N)=O)C(C)C) [SEQ ID NO: 124]
10.7 -log M | 6.7 -log M | H[Aib]EGTFTSDVSYLKEEALLQRFLEHLV-NH2 (not fully specified (residue 14)) [SEQ ID NO: 132]
10.9 -log M | 7.5 -log M | H[Aib]EGTFTSDVSVLKEEA[Aib]LQRFLEHLV-NH2 (not fully specified (residue 14)) [SEQ ID NO: 138]
7.8 -log M | 4.7 -log M | H[Aib]EGTFTSDPSYLLEGAALQRFIQWLV-NH2 (N-terminus assumed; SMILES CC[C@H](C)[C@H](NC(=O)[C@H](Cc1ccccc1)NC(=O)[C@H](CCCNC(=N)N)NC(=O)[C@H](CCC(N)=O)NC(=O)[C@H](CC(C)C)NC(=O)[C@H](C)NC(=O)[C@H](C)NC(=O)CNC(=O)[C@H](CCC(=O)O)NC(=O)[C@H](CC(C)C)NC(=O)[C@H](CC(C)C)NC(=O)[C@H](Cc1ccc(O)cc1)NC(=O)[C@H](CO)NC(=O)[C@@H]1CCCN1C(=O)[C@H](CC(=O)O)NC(=O)[C@H](CO)NC(=O)[C@@H](NC(=O)[C@H](Cc1ccccc1)NC(=O)[C@@H](NC(=O)CNC(=O)[C@H](CCC(=O)O)NC(=O)C(C)(C)NC(=O)[C@@H](N)Cc1c[nH]cn1)[C@@H](C)O)[C@@H](C)O)C(=O)N[C@@H](CCC(N)=O)C(=O)N[C@@H](Cc1c[nH]c2ccccc12)C(=O)N[C@@H](CC(C)C)C(=O)N[C@H](C(N)=O)C(C)C) [SEQ ID NO: 128]
8.9 -log M | 4.7 -log M | H[Aib]EGTFTSDVSPLKEEA[Aib]LQRFLEHLV-NH2 (not fully specified (residue 14); also: K14 lipidated with C20DA[γE][OEG][OEG]- or C18DA[γE][OEG][OEG]-) [SEQ ID NO: 140]
11.1 -log M | 5.6 -log M | H[Aib]EGTFTSDVSYLKEEA[Aib]SQRFLEHLV-NH2 (not fully specified (residue 14)) [SEQ ID NO: 134]
8.1 -log M | 5.7 -log M | H[Aib]EGTFTSDPSFLLEGAALQRFIQWLV-NH2 (N-terminus assumed; SMILES CC[C@H](C)[C@H](NC(=O)[C@H](Cc1ccccc1)NC(=O)[C@H](CCCNC(=N)N)NC(=O)[C@H](CCC(N)=O)NC(=O)[C@H](CC(C)C)NC(=O)[C@H](C)NC(=O)[C@H](C)NC(=O)CNC(=O)[C@H](CCC(=O)O)NC(=O)[C@H](CC(C)C)NC(=O)[C@H](CC(C)C)NC(=O)[C@H](Cc1ccccc1)NC(=O)[C@H](CO)NC(=O)[C@@H]1CCCN1C(=O)[C@H](CC(=O)O)NC(=O)[C@H](CO)NC(=O)[C@@H](NC(=O)[C@H](Cc1ccccc1)NC(=O)[C@@H](NC(=O)CNC(=O)[C@H](CCC(=O)O)NC(=O)C(C)(C)NC(=O)[C@@H](N)Cc1c[nH]cn1)[C@@H](C)O)[C@@H](C)O)C(=O)N[C@@H](CCC(N)=O)C(=O)N[C@@H](Cc1c[nH]c2ccccc12)C(=O)N[C@@H](CC(C)C)C(=O)N[C@H](C(N)=O)C(C)C) [SEQ ID NO: 126]
10.8 -log M | 6.4 -log M | H[Aib]EGTFTSDVSYLKEEA[Aib]LQRFLEFLV-NH2 (not fully specified (residue 14)) [SEQ ID NO: 133]
11.3 -log M | 6.9 -log M | H[Aib]EGTFTSDVSYLKEEA[Aib]LQRWLEHLV-NH2 (not fully specified (residue 14)) [SEQ ID NO: 135]
8.4 -log M | 5 -log M | H[Aib]EGTFTSDPS[Aib]LLEGAALQRFIQWLV-NH2 (N-terminus assumed; SMILES CC[C@H](C)[C@H](NC(=O)[C@H](Cc1ccccc1)NC(=O)[C@H](CCCNC(=N)N)NC(=O)[C@H](CCC(N)=O)NC(=O)[C@H](CC(C)C)NC(=O)[C@H](C)NC(=O)[C@H](C)NC(=O)CNC(=O)[C@H](CCC(=O)O)NC(=O)[C@H](CC(C)C)NC(=O)[C@H](CC(C)C)NC(=O)C(C)(C)NC(=O)[C@H](CO)NC(=O)[C@@H]1CCCN1C(=O)[C@H](CC(=O)O)NC(=O)[C@H](CO)NC(=O)[C@@H](NC(=O)[C@H](Cc1ccccc1)NC(=O)[C@@H](NC(=O)CNC(=O)[C@H](CCC(=O)O)NC(=O)C(C)(C)NC(=O)[C@@H](N)Cc1c[nH]cn1)[C@@H](C)O)[C@@H](C)O)C(=O)N[C@@H](CCC(N)=O)C(=O)N[C@@H](Cc1c[nH]c2ccccc12)C(=O)N[C@@H](CC(C)C)C(=O)N[C@H](C(N)=O)C(C)C) [SEQ ID NO: 125]
10.5 -log M | 6 -log M | H[Aib]EGTFTSDVSYLWEEA[Aib]LQRFLEKLV-NH2 (not fully specified (residue 25)) [SEQ ID NO: 130]
10.5 -log M | 6.5 -log M | H[Aib]EGTFTSDVSFLKE[Aib]AATQRFLEHLV-NH2 (not fully specified (residue 14)) [SEQ ID NO: 13]
8.1 -log M | 5.4 -log M | H[Aib]EGTFTSDPSWLLEGAALQRFIQWLV-NH2 (N-terminus assumed; SMILES CC[C@H](C)[C@H](NC(=O)[C@H](Cc1ccccc1)NC(=O)[C@H](CCCNC(=N)N)NC(=O)[C@H](CCC(N)=O)NC(=O)[C@H](CC(C)C)NC(=O)[C@H](C)NC(=O)[C@H](C)NC(=O)CNC(=O)[C@H](CCC(=O)O)NC(=O)[C@H](CC(C)C)NC(=O)[C@H](CC(C)C)NC(=O)[C@H](Cc1c[nH]c2ccccc12)NC(=O)[C@H](CO)NC(=O)[C@@H]1CCCN1C(=O)[C@H](CC(=O)O)NC(=O)[C@H](CO)NC(=O)[C@@H](NC(=O)[C@H](Cc1ccccc1)NC(=O)[C@@H](NC(=O)CNC(=O)[C@H](CCC(=O)O)NC(=O)C(C)(C)NC(=O)[C@@H](N)Cc1c[nH]cn1)[C@@H](C)O)[C@@H](C)O)C(=O)N[C@@H](CCC(N)=O)C(=O)N[C@@H](Cc1c[nH]c2ccccc12)C(=O)N[C@@H](CC(C)C)C(=O)N[C@H](C(N)=O)C(C)C) [SEQ ID NO: 127]
10.7 -log M | 6.7 -log M | H[Aib]EGTFTSDVSELKEEAAQQRFLEHLV-NH2 (not fully specified (residue 14); also: K14 lipidated with C20DA[γE][OEG][OEG]- or C18DA[γE][OEG][OEG]-) [SEQ ID NO: 14]
11.3 -log M | 5.3 -log M | H[Aib]EGTFTSDVSYLKEEA[Aib]NQRFLEHLV-NH2 (not fully specified (residue 14)) [SEQ ID NO: 131]
11.4 -log M | 6.6 -log M | H[Aib]EGTFTSDVSYLKEEA[Aib]LQRYLEHLV-NH2 (not fully specified (residue 14); also: K14 lipidated with C20DA[γE][OEG][OEG]- or C18DA[γE][OEG][OEG]-) [SEQ ID NO: 141]
10.9 -log M | 7.9 -log M | H[Aib]EGTFTSDVSNLKEEA[Aib]LQRFLEHLV-NH2 (not fully specified (residue 14)) [SEQ ID NO: 136]
8.1 -log M | 5 -log M | H[Aib]EGTFTSDPSVLLEGAALQRFIQWLV-NH2 (N-terminus assumed; SMILES CC[C@H](C)[C@H](NC(=O)[C@H](Cc1ccccc1)NC(=O)[C@H](CCCNC(=N)N)NC(=O)[C@H](CCC(N)=O)NC(=O)[C@H](CC(C)C)NC(=O)[C@H](C)NC(=O)[C@H](C)NC(=O)CNC(=O)[C@H](CCC(=O)O)NC(=O)[C@H](CC(C)C)NC(=O)[C@H](CC(C)C)NC(=O)[C@@H](NC(=O)[C@H](CO)NC(=O)[C@@H]1CCCN1C(=O)[C@H](CC(=O)O)NC(=O)[C@H](CO)NC(=O)[C@@H](NC(=O)[C@H](Cc1ccccc1)NC(=O)[C@@H](NC(=O)CNC(=O)[C@H](CCC(=O)O)NC(=O)C(C)(C)NC(=O)[C@@H](N)Cc1c[nH]cn1)[C@@H](C)O)[C@@H](C)O)C(C)C)C(=O)N[C@@H](CCC(N)=O)C(=O)N[C@@H](Cc1c[nH]c2ccccc12)C(=O)N[C@@H](CC(C)C)C(=O)N[C@H](C(N)=O)C(C)C) [SEQ ID NO: 129]
